Target: VASP-EVH1 (human VASP aa1-115, GST cleaved with thrombin) (human, UniProt P50552 1-115)
Assay: ITC

Sequence of VASP-EVH1 (human VASP aa1-115, GST cleaved with thrombin) (P50552 1-115): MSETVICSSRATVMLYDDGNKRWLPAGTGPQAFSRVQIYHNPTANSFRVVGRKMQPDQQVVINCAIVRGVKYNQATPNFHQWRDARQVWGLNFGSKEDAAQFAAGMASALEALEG

Ac-SEDNLPPPPAEFSYP-NH2 [15-mer WAVE2-derived peptide Ac-SEDNLPPPPAEFSYP-NH2] gave a Kd of 250 µM.
